Square brackets hold non-standard residues; d marks the D form. Ends that are not written are not given here. hArg = N=C(N)NCCCC[C@H](N)C(=O)O; Aib = CC(C)(N)C(=O)O
T1: human PTH-1 receptor (human, UniProt Q03431 27-593)
T1 construct: whole, on cells; also called human PTHR1; human PTH receptor
T1 sequence (looked up): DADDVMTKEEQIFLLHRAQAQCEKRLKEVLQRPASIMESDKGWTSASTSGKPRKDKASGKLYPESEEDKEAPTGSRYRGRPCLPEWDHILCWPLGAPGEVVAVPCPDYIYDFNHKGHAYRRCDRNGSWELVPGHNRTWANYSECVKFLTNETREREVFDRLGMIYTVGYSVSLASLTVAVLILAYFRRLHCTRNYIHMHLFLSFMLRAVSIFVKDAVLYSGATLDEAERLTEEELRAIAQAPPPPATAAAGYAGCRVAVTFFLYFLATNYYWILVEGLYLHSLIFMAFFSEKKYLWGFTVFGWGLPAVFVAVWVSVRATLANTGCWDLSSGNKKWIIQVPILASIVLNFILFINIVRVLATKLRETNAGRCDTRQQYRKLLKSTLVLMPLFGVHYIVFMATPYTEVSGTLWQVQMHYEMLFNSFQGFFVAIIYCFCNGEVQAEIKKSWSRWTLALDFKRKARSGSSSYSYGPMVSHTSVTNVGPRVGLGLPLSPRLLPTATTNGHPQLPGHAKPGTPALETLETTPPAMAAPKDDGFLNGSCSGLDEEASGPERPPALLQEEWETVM

T2: rat PTH receptor (rat, UniProt P25961 27-591, limits assumed)
T2 construct: R0 and RG conformations assayed separately by the method of WO 2009/017809 or a similar one; also called rat PTHR1
T2 sequence (looked up): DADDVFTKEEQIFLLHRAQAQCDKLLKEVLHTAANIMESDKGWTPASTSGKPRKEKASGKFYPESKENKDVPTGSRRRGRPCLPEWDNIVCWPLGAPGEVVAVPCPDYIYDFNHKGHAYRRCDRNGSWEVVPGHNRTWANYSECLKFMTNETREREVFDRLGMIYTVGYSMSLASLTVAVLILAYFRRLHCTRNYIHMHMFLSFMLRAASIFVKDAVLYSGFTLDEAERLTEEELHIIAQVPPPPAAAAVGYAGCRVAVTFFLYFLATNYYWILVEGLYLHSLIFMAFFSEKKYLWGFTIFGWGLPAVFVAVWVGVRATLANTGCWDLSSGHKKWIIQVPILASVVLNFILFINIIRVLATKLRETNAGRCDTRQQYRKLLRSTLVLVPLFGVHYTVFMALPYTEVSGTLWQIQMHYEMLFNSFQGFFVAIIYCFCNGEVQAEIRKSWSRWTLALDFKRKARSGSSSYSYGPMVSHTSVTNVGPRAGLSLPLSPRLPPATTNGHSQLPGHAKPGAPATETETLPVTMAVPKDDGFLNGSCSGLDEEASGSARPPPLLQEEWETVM

B1: Aib-SP-PTH-AAK ([Ala1,12,18,22,Aib3,Gln10,Har11,Trp14,Lys26]PTH(1-14)/PTHrP(15-36)) (peptide)
peptide: AV[Aib]EIQLMHQ[hArg]AKWIQDARRRAFLHKLIAEIHTAEI-NH2
modifications: N-terminus assumed
SMILES: CC[C@H](C)[C@H](NC(=O)[C@H](CCC(=O)O)NC(=O)[C@H](C)NC(=O)[C@@H](NC(=O)[C@H](Cc1c[nH]cn1)NC(=O)[C@@H](NC(=O)[C@H](CCC(=O)O)NC(=O)[C@H](C)NC(=O)[C@@H](NC(=O)[C@H](CC(C)C)NC(=O)[C@H](CCCCN)NC(=O)[C@H](Cc1c[nH]cn1)NC(=O)[C@H](CC(C)C)NC(=O)[C@H](Cc1ccccc1)NC(=O)[C@H](C)NC(=O)[C@H](CCCNC(=N)N)NC(=O)[C@H](CCCNC(=N)N)NC(=O)[C@H](CCCNC(=N)N)NC(=O)[C@H](C)NC(=O)[C@H](CC(=O)O)NC(=O)[C@H](CCC(N)=O)NC(=O)[C@@H](NC(=O)[C@H](Cc1c[nH]c2ccccc12)NC(=O)[C@H](CCCCN)NC(=O)[C@H](C)NC(=O)[C@H](CCCCNC(=N)N)NC(=O)[C@H](CCC(N)=O)NC(=O)[C@H](Cc1c[nH]cn1)NC(=O)[C@H](CCSC)NC(=O)[C@H](CC(C)C)NC(=O)[C@H](CCC(N)=O)NC(=O)[C@@H](NC(=O)[C@H](CCC(=O)O)NC(=O)C(C)(C)NC(=O)[C@@H](NC(=O)[C@H](C)N)C(C)C)[C@@H](C)CC)[C@@H](C)CC)[C@@H](C)CC)[C@@H](C)CC)[C@@H](C)O)C(N)=O
notes: Synthetic hybrid analog of human PTH(1-14) and human PTHrP(15-36); also called Super-potent Aib-AAK PTH; M-PTH(1-14)AAK-/rP(15-36)NH2
B2: SP-PTH ([Ala1,3,12,Gln10,Arg11,Trp14]PTH(1-14)/PTHrP(15-36)) (peptide)
peptide: AVAEIQLMHQRAKWIQDLRRRFFLHHLIAEIHTAEI-OH
notes: Synthetic hybrid analog of human PTH(1-14) and human PTHrP(15-36); also called Super-potent PTH; Mc-PTH(1-14)/rP(15-36)OH
B3: SP-PTH-AAK ([Ala1,3,12,18,22,Gln10,Arg11,Trp14,Lys26]PTH(1-14)/PTHrP(15-36)) (peptide)
peptide: AVAEIQLMHQRAKWIQDARRRAFLHKLIAEIHTAEI-OH
notes: Synthetic hybrid analog of human PTH(1-14) and human PTHrP(15-36); also called Mc-PTH(1-14)/AAK-rP(15-36)OH; SP-AAK
B4: M-PTH(1-34) (peptide)
peptide: AV[Aib]EIQLMHQ[hArg]AKWLNSMRRVEWLRKKLQDVHNF-NH2
modifications: N-terminus assumed
SMILES: CC[C@H](C)[C@H](NC(=O)[C@H](CCC(=O)O)NC(=O)C(C)(C)NC(=O)[C@@H](NC(=O)[C@H](C)N)C(C)C)C(=O)N[C@@H](CCC(N)=O)C(=O)N[C@@H](CC(C)C)C(=O)N[C@@H](CCSC)C(=O)N[C@@H](Cc1c[nH]cn1)C(=O)N[C@@H](CCC(N)=O)C(=O)N[C@@H](CCCCNC(=N)N)C(=O)N[C@@H](C)C(=O)N[C@@H](CCCCN)C(=O)N[C@@H](Cc1c[nH]c2ccccc12)C(=O)N[C@@H](CC(C)C)C(=O)N[C@@H](CC(N)=O)C(=O)N[C@@H](CO)C(=O)N[C@@H](CCSC)C(=O)N[C@@H](CCCNC(=N)N)C(=O)N[C@@H](CCCNC(=N)N)C(=O)N[C@H](C(=O)N[C@@H](CCC(=O)O)C(=O)N[C@@H](Cc1c[nH]c2ccccc12)C(=O)N[C@@H](CC(C)C)C(=O)N[C@@H](CCCNC(=N)N)C(=O)N[C@@H](CCCCN)C(=O)N[C@@H](CCCCN)C(=O)N[C@@H](CC(C)C)C(=O)N[C@@H](CCC(N)=O)C(=O)N[C@@H](CC(=O)O)C(=O)N[C@H](C(=O)N[C@@H](Cc1c[nH]cn1)C(=O)N[C@@H](CC(N)=O)C(=O)N[C@@H](Cc1ccccc1)C(N)=O)C(C)C)C(C)C
notes: M residues: Ala1,12, Aib3, Gln10, homoArg11, Trp14, Arg19; also called M-PTH(1-34).NH2; MGH# 1577

Legend:
human PTH-1 receptor [1] = molecular target: T1, human PTH-1 receptor; assay: radioligand competition, human PTHR1 in COS-7 membranes, R0 conformation
Experimental: (§1) Here, competition binding assays for the R⁰ and RG PTHR1 conformation were performed in membranes prepared from transfected COS-7 cells, as described by Dean et al., Mol Endocrinol 22:156-66, 2008. Data are means of three experiments, each performed in duplicate. Curves were fit to the data using Graph-Pad Prism 4.0.

human PTH-1 receptor [2] = molecular target: T1, human PTH-1 receptor; assay: radioligand competition, human PTHR1 in COS-7 membranes, RG conformation
Experimental: as §1

rat PTH receptor [3] = molecular target: T2, rat PTH receptor; assay: radioligand displacement, rat PTHR1, RG conformation
rat PTH receptor [4] = molecular target: T2, rat PTH receptor; assay: radioligand displacement, rat PTHR1, R0 conformation

| Binder | IC50 (human PTH-1 receptor [1]) [pM] | IC50 (human PTH-1 receptor [2]) [pM] | IC50 (rat PTH receptor [3]) [pM] | IC50 (rat PTH receptor [4]) [pM] |
| --- | --- | --- | --- | --- |
| B1 | 940 | 370 | 450 |  |
| B2 | 1400 | 480 | 610 | 1400 |
| B3 | 680 | 220 | 700 | 210 |
| B4 | 950 | 450 | 900 | 1500 |

Source: patent publication US9492508B2, “Parathyroid hormone analogs and uses thereof” (The General Hospital Corporation, priority 2010, dated 2016)
